Source: the supplement of paper PMC10126150
± gives the standard deviation of the averaged measurements.

System: ATP
Assay: switch fluorescence ratio, 500 uM ATP over buffer (Cy3 cluster intensity, sum of 5 cycles each) (fold (ratio)); higher = stronger signal-on switching upon ATP binding; sequences stand for … in TCGTCGGCAGCGTCAGATGTGTATAAGAGACAGTTTTTTTTTTTTTTTTTTTTTTTTT…TC
Settings: aptamer strand: ATP DNA aptamer (quencher-CACCTGGGGGAGTATTGCGGAGGAAGG + anchor), 100 nM annealed; ATP concentration: 500 uM
Outline: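 For every switch-domain sequence, the fluorescence ratio is the mean of per-cluster values, each being summed target-cycle Cy3 intensity over summed buffer-cycle Cy3 intensity. Clusters outside 100-1000 RFU were excluded. On a modified Illumina MiSeq flow-cell, the Cy3-labelled switching-strand clusters were annealed to 100 nM quencher-labelled ATP aptamer, imaged in selection buffer and then after 15 min with 500 uM ATP at 22 °C. Five such cycles were run, with NaOH stripping and re-annealing between them.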
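Also: ATP exposure 15 min at 22 °C before imaging.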

Row | Sequence | switch fluorescence ratio
1 | GAAATTCACA | 1.04 ± 0.031
2 | GAAATTGGGT | 0.981 ± 0.018
3 | GAACACGGCG | 1 ± 0.05
4 | GAACAGGGGG | 1.01 ± 0.046
5 | GAACATGATA | 1.02 ± 0.028
6 | GAACATTTTT | 1.03 ± 0.021
7 | GAACCAGGGG | 1.27 ± 0.088
8 | GAACCGGTAC | 1.21 ± 0.019
9 | GAACGCTGGA | 1.04 ± 0.056
10 | GAACGCTTGG | 1.05 ± 0.023
11 | GAACGGGGGT | 1 ± 0.015
12 | GAACGGGTAC | 1.42 ± 0.17
13 | GAACGTTATT | 1.2 ± 0.23
14 | GAACTATTCA | 0.9848 ± 0.0054
15 | GAACTCCGGG | 1.1 ± 0.054
16 | GAACTCGGGG | 1.019 ± 0.0051
17 | GAACTCTGGG | 0.9899 ± 0.006
18 | GAACTGCATA | 1.09 ± 0.085
19 | GAACTGGGGG | 1 ± 0.019
20 | GAACTTAAAA | 1.02 ± 0.045
21 | GAACTTCGGT | 0.946 ± 0.013
22 | GAAGAAAGCG | 1.007 ± 0.0094

Row | Sequence | switch fluorescence ratio
23 | GAAGAAGGCT | 0.89 ± 0.078
24 | GAAGAATAGG | 0.967 ± 0.015
25 | GAAGACGGGA | 1.01 ± 0.045
26 | GAAGAGATGT | 1.01 ± 0.021
27 | GAAGAGGGGA | 1.01 ± 0.013
28 | GAAGATGAGG | 1 ± 0.028
29 | GAAGATGGTT | 0.969 ± 0.018
30 | GAAGATTTGC | 0.973 ± 0.012
31 | GAAGCAAAGG | 2.04 ± 0.074
32 | GAAGCCGGGC | 1.04 ± 0.022
33 | GAAGCTAATC | 2.77 ± 0.47
34 | GAAGCTGTTT | 1.026 ± 0.0042
35 | GAAGCTTTTT | 1 ± 0.047
36 | GAAGGAAGGT | 0.9996 ± 0.007
37 | GAAGGACAGA | 1 ± 0.018
38 | GAAGGAGGTT | 1 ± 0.012
39 | GAAGGCATTT | 1.16 ± 0.28
40 | GAAGGGAAGA | 0.96 ± 0.012
41 | GAAGGGATTT | 1.13 ± 0.11
42 | GAAGGGCTAG | 0.9985 ± 0.0061
43 | GAAGGGGCCC | 1.02 ± 0.013
44 | GAAGGGGCCG | 1.12 ± 0.07

Row | Sequence | switch fluorescence ratio
45 | GAAGGGGGAG | 0.996 ± 0.028
46 | GAAGGGGGTG | 1.02 ± 0.039
47 | GAAGGGGTTT | 0.999 ± 0.03
48 | GAAGGTAGGT | 0.98 ± 0.024
49 | GAAGGTGGGG | 0.992 ± 0.037
50 | GAAGTACCTT | 1.2 ± 0.044
51 | GAAGTACTAT | 1.2 ± 0.021
52 | GAAGTAGCGG | 1.018 ± 0.0084
53 | GAAGTAGTAA | 1.02 ± 0.03
54 | GAAGTCCGCG | 1.42 ± 0.077
55 | GAAGTCCGGT | 0.955 ± 0.024
56 | GAAGTCTGGG | 0.9767 ± 0.0021
57 | GAAGTGCATT | 0.98 ± 0.053
58 | GAAGTGGGAT | 0.984 ± 0.022
59 | GAAGTGGGTG | 1.11 ± 0.17
60 | GAAGTGTGGC | 1.08 ± 0.031
61 | GAAGTTAGTT | 0.993 ± 0.038
62 | GAAGTTGGAG | 0.97 ± 0.053
63 | GAAGTTGTCG | 1.02 ± 0.02
64 | GAATAAGAGA | 0.974 ± 0.036
65 | GAATAAGATC | 1.02 ± 0.042
66 | GAATAAGATT | 1.01 ± 0.061

Row | Sequence | switch fluorescence ratio
67 | GAATAAGGTA | 0.993 ± 0.011
68 | GAATATTGTA | 0.988 ± 0.013
69 | GAATATTTAA | 0.998 ± 0.014
70 | GAATCACTAA | 1 ± 0.059
71 | GAATCAGGG | 0.972 ± 0.034
72 | GAATCATAGT | 1.003 ± 0.0083
73 | GAATCCGGTT | 0.989 ± 0.019
74 | GAATCCGTAG | 1.16 ± 0.03
75 | GAATCGGTAG | 0.9783 ± 0.0013
76 | GAATCTTGCG | 0.95976 ± 0.00094
77 | GAATGAGAGA | 1 ± 0.037
78 | GAATGGAGCC | 0.995 ± 0.022
79 | GAATGGCATG | 0.991 ± 0.034
80 | GAATGGCTGC | 1.04 ± 0.0048
81 | GAATGGGAGG | 0.975 ± 0.02
82 | GAATGGGATT | 0.976 ± 0.018
83 | GAATGGGGGG | 1.01 ± 0.078
84 | GAATGGGGTA | 1.011 ± 0.0057
85 | GAATGGGTTA | 0.965 ± 0.018
